Source: patent publication US20040254139, “Oligonucleotides antagonist for human tumor necrosis factor alpha (TNF-alpha)” (published 2004)

Tests used:
[1] = biological target: T1, TNF-alpha (tumor necrosis factor alpha) (Homo sapiens, UniProt P01375 P01375:77-233); assay: ELONA; affinity unchanged; still positive at 3 ng/ml; conditions: chain copies: 3
[2] = biological target: T1, TNF-alpha (tumor necrosis factor alpha); assay: ELONA; affinity and inhibition activity stated unchanged; conditions: chain copies: 3

T1 sequence (P01375 77-233, one chain of several): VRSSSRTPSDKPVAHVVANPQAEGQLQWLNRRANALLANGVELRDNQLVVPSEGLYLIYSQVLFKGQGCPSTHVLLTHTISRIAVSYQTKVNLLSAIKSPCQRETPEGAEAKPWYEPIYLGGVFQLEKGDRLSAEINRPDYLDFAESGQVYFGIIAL

CCUCAUAGACUACUGUUAAGCCUCGAGG (ssRNA, 2'-NH2 pyrimidines (printed 2-amido)) [truncated amino-modified SEQ 25]
binding result [1]: binds

GCUUAGCAAACGCACCGCACAGGCCCGCGG (ssRNA, 2'-F and 2'-NH2 pyrimidines (printed 2-fluorin and 2-amido)) [truncated modified SEQ 20]
binding result [2]: binds
